Measurements published in patent US20240279611A1, “EXOSOME PRODUCTION PROMOTING AGENT AND EXOSOME PRODUCTION PROMOTING METHOD” (FULLSTEM CO., LTD., priority 2021, published 2024).

System: adipose-derived mesenchymal stem cells (ADSC)
Test: Amount of exosomes produced from ADSC, measured with Exo Counter (CD81 sandwich immunoassay) after excluding single factors
Format: cell-based
Conditions: 48-hour culture in DMEM F12 on nonwoven fabric; one factor excluded from the eight factors of Table 1, compared with all eight added; CD81 on exosome surface detected in culture supernatant; FIG. 1
Protocol: 4×10^4 adipose-derived mesenchymal stem cells (ADSC) were seeded in each well. A nonwoven fabric (3D, BioNOCII, CESCO BIOENGINEERING CO., LTD. in non-adhesive 24 well plate (PrimeSurface (registered trademark) Sumitomo Bakelite Co., Ltd.) was used for cell culture. A basal medium was 1.5 ml of 10% FBS/DMEM F12 (Sigma-Aldrich). The number of days of culture was 6. Starting from Day 2, 1.5 ml of medium was exchanged daily, and the amount of sugar consumed in the used culture medium was measured.
Next, in the cell culture for 48 hours on Day 7 and Day 8, DMEM F12 was used as a medium so as to collect exosomes. In this 48-hour culture, 10% ExoFBS (Funakoshi Co., Ltd.) was added in Test #1. ExoFBS is a product from which bovine-derived exosomes are removed; therefore, influence on an exosome research is reduced.
In Test #3 of the 48-hour culture, only factor A was excluded from the eight factors shown in Table 1, and the other factors were added. In Test #4 of the 48-hour culture, only factor B was excluded from the eight factors shown in Table 1, and the other factors were added. […]
The amount of exosomes produced from ADSC was measured with Exo Counter (Kenwood), using 50 μl each from 1.5 ml of the collected culture supernatant. […] CD81 on the exosome surface was detected to quantify the exosome amount.

B1: SCGF (protein, UniProt Q9Y240 22-323, looked up)
C-type lectin domain family …: ARGAEREWEGGWGGAQEEEREREALMLKHLQEALGLPAGRGDENPAGTVEGKEDWEMEEDQGEEEEEEATPTPSSGPSPSPTPEDIVTYILGRLAGLDAGLHQLHVRLHALDTRVVELTQGLRQLRNAAGDTRDAVQALQEAQGRAEREHGRLEGCLKGLRLGHKCFLLSRDFEAQAAAQARCTARGGSLAQPADRQQMEALTRYLRAALAPYNWPVWLGVHDRRAEGLYLFENGQRVSFFAWHRSPRPELGAQPSASPHPLSPDQPNGGTLENCVAQASDDGSWWDHDCQRRLYYVCEFPF
notes: 29-kDa protein having no N-type sugar chain, belongs to a C-type lectin family
effect of the factor on the amount of exosomes produced: inhibits the production of exosomes
